From paper PMC4043945, “Biochemical and Molecular Characterization of Barley Plastidial ADP-Glucose Transporter (HvBT1)” (PLoS ONE, 2014) come the findings set out here.

Substrate in series [1]: Nc1ncnc2c1ncn2[C@@H]1O[C@H](COP(=O)(O)OP(=O)(O)O[C@H]2O[C@H](CO)[C@@H](O)[C@H](O)[C@H]2O)[C@@H](O)[C@H]1O
Briefly: radiolabelled uptake (Michaelis-Menten) in intact E. coli cells expressing HvBT1; empty-plasmid control subtracted. It is filed as cell-based, Hordeum vulgare.

Substrate in series [2]: Nc1ncnc2c1ncn2[C@@H]1O[C@H](COP(=O)(O)OP(=O)(O)O)[C@@H](O)[C@H]1O
Description: radiolabelled uptake (Michaelis-Menten) in intact E. coli cells expressing HvBT1; also counter-exchange and reduction of ADP-Glc uptake. It is filed as cell-based, Hordeum vulgare. Conditions: counter-exchange substrate with ADP-glucose.

B1: HvBT1 (barley plastidial ADP-glucose transporter) (Hordeum vulgare subsp. vulgare) (protein)
chain: MAAAMAATTMVTKNNGGSLAMDKKNWFFRPAPEVAFSWSSQPESRSLEFPRRALFASVGLSLSHDGKARPADDVAHQLAAAGDAGVQQAQKAKKAKKQQLGLRKVRVKIGNPHLRRLVSGAIAGAVSRTFVAPLETIRTHLMVGSSGADSMGGVFRWIMRTEGWPGLFRGNAVNVLRVAPSKAIEHFTYDTAKKYLTPEAGEPAKVPIPTPLVAGALAGVASTLCTYPMELVKTRLTIEKDVYDNLLHAFVKIVRDEGPGELYRGLAPSLIGVVPYAAANFYAYETLRGAYRRASGKEEVGNVPTLLIGSAAGAIASTATFPLEVARKQMQVGAVGGRQVYKNVLHAMYCILNKEGAAGLYRGLGPSCIKLMPAAGISFMCYEACKKILVDDKQDGEPQDQEETETGHTQGQAAPKSPNANGDRP
notes: codon-optimized ORF in pET16b with N-terminal His-tag, expressed in E. coli C43 (DE3)
As to B1, the Km (usually the substrate concentration at which the rate is half of its maximum) in series [1] is on record as 614.5 µM; in series [2], 334.7 µM.
